This is an account of results in article PMC10653801.

For the series, the target named is HipB(Lp) (Legionella pneumophila Lp01JK, UniProt Q5ZSZ8 1-75). Nature of the series: EMSA; HipB 2.5 nM, DNA 10 nM. The settings on record: protein: recombinant; tags: His6-SBP tag cleaved; chain copies: 2; blunt.

B1: OI (O1 downstream repeat inverted) (dsDNA)
DNA 1: TATCATTTTTACTGCTATAAAATGACTATATAATTAATTTTTGGTGTTCC
DNA 2: GGAACACCAAAAATTAATTATATAGTCATTTTATAGCAGTAAAAATGATA
With B1, the binding result is “binds”.

B2: OS (O1 scrambled) (dsDNA)
DNA 1: TATCATTTAACAAACTCGATTTGTTATATATAATTAATTTTTGGTGTTCC
DNA 2: GGAACACCAAAAATTAATTATATATAACAAATCGAGTTTGTTAAATGATA
With B2, the binding result is on record as “no binding”.

B3: CO (random + O1) (dsDNA)
DNA 1: ACTGTGAGCCTAATATTTACTGCTATAACAGTAAAGGCTATCTGATTTTA
DNA 2: TAAAATCAGATAGCCTTTACTGTTATAGCAGTAAATATTAGGCTCACAGT
Consider B3, for which the binding result was “binds”.
